US20260234276A1 (DOMAIN THERAPEUTICS, published 2026)

Key:
[1] = target: T1, biotinylated CCR8 peptide (human, N-terminal biotin); test: ELISA, soluble Fab on biotinylated CCR8 peptide captured on streptavidin
T1 construct: first 34 residues of human CCR8 plus a C-terminal K; also called biotinylated target peptide
Protocol: (§1) The wells of a microtiter plate were coated with 200 ng streptavidin protein in 100 μL Coating Buffer (0.1 M NaHCO₃, pH 8.6), and then incubated overnight at 4° C. For negative control, the wells were coated with PBS to determine non-specific binding. After shaking out the coating solution, the wells were washed three times with washing buffer (0.1% Tween 20-PBS). To prevent non-specific binding, 200 μL Blocking Buffer (3% BSA-PBS) was adding and incubated for 2 h at 37° C. After shaking out the blocking buffer, the wells were incubated with 50 ng biotinylated target peptide (SEQ ID NO: 420; see Example 10) in 100 μL Blocking Buffer for 1 h at 37° C. The control well was incubated with only 100 μL Blocking Buffer for 1 h at 37° C. After shaking out the biotinylated target peptide or buffer solution, the wells were washed 3 times with the washing buffer (0.1% Tween 20-PBS). Then 100 μL supernatant containing soluble Fab were added and incubated for 2 h at 37° C. Following three washes with washing buffer (0.1% Tween 20-PBS) for 3 times, 100 μL/well HRP conjugate of mouse anti-Flag tag mAb (Sigma A8592, 1:5000) diluted in Blocking Buffer were added and incubated for 1 h at 37° C. After washings, 3,3′,5,5′-tetramethylbenzidine (TMB) (Sigma) were added for 5 to 30 min at room temperature. The reaction was stopped by adding 50 μL/well of 1 M H₂SO₄.

streptavidin = target: T2, streptavidin (UniProt P22629 37-163, limits assumed); test: ELISA, soluble Fab on streptavidin-coated control well without peptide
T2 construct: control well without peptide
T2 sequence (P22629 37-163 limits assumed): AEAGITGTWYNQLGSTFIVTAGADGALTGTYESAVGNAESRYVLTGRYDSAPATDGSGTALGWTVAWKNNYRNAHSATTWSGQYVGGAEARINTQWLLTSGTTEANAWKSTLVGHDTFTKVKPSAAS
Protocol: as §1

human CCR8 = human CCR8 (human, UniProt P51685 1-355); test: cell-based or functional assay

Row | Binder | Optical Density [1] [OD450] | Optical Density (streptavidin) [OD450] | ADCC % Max lysis, NK cells Donor 3 (human CCR8) [%] | ADCC % Max lysis, NK cells Donor 4 (human CCR8) [%] | ADCC EC50, NK cells Donor 3 (human CCR8) [nM] | ADCC EC50, NK cells Donor 4 (human CCR8) [nM]
1 | 3-56 (Fab, V domains shown, soluble Fab from phage display library huFabL-4, Flag tag) VH: EVQLVQSGGGVVQPGRSLRLSCAASGFTFSTYGMHWVRQAPGKGLEWVAVISYDGSKKYYADSVKGRFTISRDNSRNTVYLQMDSLRSEDTAVYYCAKDLSWPVRRLDVWGKGTMVTVSS VL: EIVLTQSPLSLPVTLGQPASISCRSSQSLVYSTGNTYLNWFHQRPGQSPRRLIYQVSNRDSGVPDRFSGSGSGTDFTLKISRVEADDVGVYYCMQGTHWPPTFGQGTKVEIKR | 2.35 | 0.08 |  |  |  | 
2 | 3-90 (antibody) heavy: not shown light: DVVMTQTPLSLPVSLGDQASISCRCTQSLLHTNGDTYLHWYLQKPGQSPKLLIYKVSNRFSGVPDRFSGSGSGTDFTLKISRVEAEDLGVYFCSQSTHVPYTFGGGTKLEIKRTVAAPSVFIFPPSDEQLKSGTASVVCLLNNFYPREAKVQWKVDNALQSGNSQESVTEQDSKDSTYSLSSTLTLSKADYEKHKVYACEVTHQGLSSPVTKSFNRGEC |  |  | 14 | 15 | 0.793 | 1.52
3 | 3-91 (antibody) heavy: not shown light: DVVMTQTPLSLPVSLGDQASISCRCTQSLLHTNGDTYLHWYLQKPGQSPKLLIYKVSNRFSGVPDRFSGSGSGTDFTLKISRVEAEDLGVYFCSQSTHVPYTFGGGTKLEIKRTVAAPSVFIFPPSDEQLKSGTASVVCLLNNFYPREAKVQWKVDNALQSGNSQESVTEQDSKDSTYSLSSTLTLSKADYEKHKVYACEVTHQGLSSPVTKSFNRGEC |  |  | 25 | 28 | 0.218 | 0.053
4 | 3-92 (antibody) heavy: not shown light: DVVMTQTPLSLPVSLGDQASISCRCTQSLLHTNGDTYLHWYLQKPGQSPKLLIYKVSNRFSGVPDRFSGSGSGTDFTLKISRVEAEDLGVYFCSQSTHVPYTFGGGTKLEIKRTVAAPSVFIFPPSDEQLKSGTASVVCLLNNFYPREAKVQWKVDNALQSGNSQESVTEQDSKDSTYSLSSTLTLSKADYEKHKVYACEVTHQGLSSPVTKSFNRGEC |  |  | 29 | 29 | 0.195 | 0.282
5 | 3-102 (antibody) heavy: not shown light: DIQMTQTTSSLSASLGDRVTISCRASQDISNYLNWYQQKPDGTVKLLIYYTSRLHSGVPSRFSGSGSGTDYSLTISNLEQEDIATYFCQQGNKFPPTFGGGTKLEINRTVAAPSVFIFPPSDEQLKSGTASVVCLLNNFYPREAKVQWKVDNALQSGNSQESVTEQDSKDSTYSLSSTLTLSKADYEKHKVYACEVTHQGLSSPVTKSFNRGEC |  |  | 16 | 18 | 0.291 | 0.406
6 | 3-105 (antibody) heavy: QVQLVETGGGLVRPGNSLKLSCVTSGFTFSNYRMHWLRQPPGKRLEWIAVIKVKSDNYGANYAESVKGRFTISRDDSKSSVYLQVNRLREEDTATYYCSSPTYPGSSGFAYWGQGTLVTVSAASTKGPSVFPLAPSSKSTSGGTAALGCLVKDYFPEPVTVSWNSGALTSGVHTFPAVLQSSGLYSLSSVVTVPSSSLGTQTYICNVNHKPSNTKVDKKVEPKSCDKTHTCPPCPAPELLGGPDVFLFPPKPKDTLMISRTPEVTCVVVDVSHEDPEVKFNWYVDGVEVHNAKTKPREEQYNSTYRVVSVLTVLHQDWLNGKEYKCKVSNKALPLPEEKTISKAKGQPREPQVYTLPPSRDELTKNQVSLTCLVKGFYPSDIAVEWESNGQPENNYKTTPPVLDSDGSFFLYSKLTVDKSRWQQGNVFSCSVMHEALHNHYTQKSLSLSPG light: DIQMTQTTSSLSASLGDRVTISCRASQDISNYLNWYQQKPDGTVKLLIYYTSRLHSGVPSRFSGSGSGTDYSLTISNLEQEDIATYFCQQGNKFPPTFGGGTKLEINRTVAAPSVFIFPPSDEQLKSGTASVVCLLNNFYPREAKVQWKVDNALQSGNSQESVTEQDSKDSTYSLSSTLTLSKADYEKHKVYACEVTHQGLSSPVTKSFNRGEC |  |  | 25 | 30 | 0.00822 | 0.0489
7 | 3-74 (Fab, V domains shown, soluble Fab from phage display library huFabL-4, Flag tag) VH: EVQLVQSGGGVVQPGRSLRLSCAASGFTFSNYGMHWVRQAPGKGLEWVAIISDDGSNRYYGDSVKGRFTISRDNSKNTLYLQMNSLRAEDTAVYYCAKSLTTSYYYGMDVWGKGTLVTVSS VL: QSALTQPPSASGSPGQSVTISCTGTSSDIGGYIYVSWYQQHPGKAPKLIIYEVHKRPSGVSNRFSASKSANTASLTISGLQAEDEADYYCSSYSSSRTVLFGGGTKLTVLG | 2.81 | 0.09 |  |  |  | 
8 | 3-68 (Fab, V domains shown, soluble Fab from phage display library huFabL-4, Flag tag) VH: QVQLQQSGPGLVKPSQTLSLTCAISGDSVSRNTAAWNWIRQSPSRGLEWLGRTYYRSKWYNDYAVSVKSRITIRPDTSKNQISLQLTSVTPEDTAVYYCARGVHNAFDIWGRGTMVTVSS VL: ETTLTQSPGTLSLSPGERATLSCRASQSVGNRYLAWYQQKPGQAPRLLIYGASSRATGIPDRFSGSGSGTDFTLTISRLEPEDFAVYYCQQYSGSTGYTFGQGTKLEIKR | 3.64 | 0.06 |  |  |  | 
9 | 3-73 (Fab, V domains shown, soluble Fab from phage display library huFabL-4, Flag tag) VH: QVQLQQSGPGLVKPSQTLSLTCAISGDSVSSSTAAWNWIRQSPSRGLEWLGRTYYRSKWYNDYAVSVKSRITINPDTSKNQFSLQLNSVTPEDTAVYYCARAEAGGRFDYWGQGTLVTVSS VL: not shown | 2.27 | 0.07 |  |  |  | 
10 | 3-72 (Fab, V domains shown, soluble Fab from phage display library huFabL-4, Flag tag) VH: QVTLKESGGGVVQPGRSLRLSCAASGFTFSSYAMHWVRQAPGKGLEWVAVISYDGSNKYYADSVKGRFTISRDNSKNTLYLQMNSLRAEDTAVYYCASSLLGAFDVWGKGTLVTVSS VL: DVVMTQSPLSLPVTPGEPASISCRSSQSLLHSNGYNYLSWYLQRPGQSPQLLMYLGSKRASGVPDRFSGSGSGTDFTLEISRVEAEDVGIYYCMQALQTPLTFGGGTKVEIKR | 3.26 | 0.09 |  |  |  | 
11 | 3-55 (Fab, V domains shown, soluble Fab from phage display library huFabL-4, Flag tag) VH: QVQLQQSGPGLVKPSQTLSLTCAISGDSVSSSTAAWNWIRLSPSRGLEWLGRTYYRSKWYNDYAVSVKSRINISPDTSKNQFSLQLNSVTPEDTGVYYCARGYSRSMDVWGKGTLVTVSS VL: not shown | 2.34 | 0.07 |  |  |  | 
12 | 3-54 (Fab, V domains shown, soluble Fab from phage display library huFabL-4, Flag tag) VH: QVQLVQSGAEVKKPGASVKVSCKASGYTFSGYYIHWVRQAPGQGLEWMGWINPNSGGTNYAQNFQGRVTMTRDTSISTAYMELSRLRSDDTAMYYCARGNGAMDVWGRGTLVTVSS VL: DVVMTQSPLSLPVTSGKPASISCRSSQSLLHSNGYNYLDWYLQKPGQSPQLLIYLGSNRASGVPDRFSGSGSGTDFTLKISRVEAEDVGVYYCMQGTYWPRTFGQGTKVEIKR | 2.76 | 0.08 |  |  |  | 
13 | 3-71 (Fab, V domains shown, soluble Fab from phage display library huFabL-4, Flag tag) VH: QVQLQESGGGLVKPGRSLRLSCTASGFTFSSYAMSWVRQAPGKGLEWVSVNSGSGGTTYYADSVKGRFTISRDNAKNTLYLQMNSLRAEDTAVYYCARVSRYYDILTGYVYAFDIWGKGTLVTVSS VL: QSVVTQPPSVSAAPGQKVSISCSGSSSNIGKNYVSWYQQLPGTAPKLLIYDNNKRPSGIPDRFSGSKSGTSATLGITGLQAEDEADYYCQSYDRSLGVVFGGGTKLTVLG | 2.4 | 0.08 |  |  |  | 
14 | 3-75 (Fab, V domains shown, soluble Fab from phage display library huFabL-4, Flag tag) VH: not shown VL: LPMLTQPPSVSGTPGQRVTISCSGSTSNIGSRPVNWYQQLPGTAPKLLIYRNYQRPSGVPDRFSGSKSGTSASLAISGLRSEDEADYYCAAWDDSLSGWVFGGGTKLTVLG | 3.67 | 0.08 |  |  |  | 
15 | 3-67 (Fab, V domains shown, soluble Fab from phage display library huFabL-4, Flag tag) VH: QVQLQQSGPGLVKPSQTLSLTCAISGDSVSSNSAAWNWIRQSPSRGLEWLGRTYYRSKWYNDYAVSVKSRITINPDTSKNQFSLQLNSVTPEDTAVYYCARAARLGMDVWGKGTMVTVSS VL: QSVVTQPPSVSAAPGQKVTISCSGTSFNIGNNYVSWYQQLPGTAPKLLIYDNIRRPSGIPERFSGSKSGTSATLGITGLQTGDEADYYCGTWDSSLRAYVFGTGTKLTVLG | 2.23 | 0.06 |  |  |  | 
16 | 3-69 (Fab, V domains shown, soluble Fab from phage display library huFabL-4, Flag tag) VH: QVQLQQSGPGLVKPSQTLSLTCAISGDSVSSNSAAWNWIRQSPSRGLEWLGRTYYRSKWYNDYAVSVKSQITINPDTSKNQFSLQLNSVTPEDTAVYYCAREQFSGMDVWGRGTLVTVSS VL: QSVLTQPPSASGTPGQRVTISCSGSSSNIGRNYVYWYQQLPGTAPKLLTDSNNQRPSGVPDRFSASKSGTSASLAISGLRSEDEADYYCAAWDGSLRGRVFGGGTKMTVLG | 2.67 | 0.07 |  |  |  | 
17 | 3-57 (Fab, V domains shown, soluble Fab from phage display library huFabL-4, Flag tag) VH: QMQLVQSGAEVKKPGASVKVSCKASGYTFTSYYMHWVRQAPGQGLEWMGIINPSGGSTSYAQKFQGRVTMTRDTSTSTVYMELSSLRSEDTAVYYCARAGVRGVFGMDVWGKGTLVTVSS VL: QSALTQPASVSGSPGQSITISCTGTSSDLGAYNYVSWYQQHPGKAPRLMIYDVSKRPSGVPDRFSGSKSDNTASLTISGLQAEDEADYYCSSYTSSSTLVFGGGTKVTVLS | 2.39 | 0.1 |  |  |  | 
